Here are results for 16 sequences from the nanobody polyreactivity screen of Harvey et al. (2022).

This series can be described thus: yeast display, Sf9 membrane polyspecificity reagent, FACS + sequencing; frameworks hold sequencing errors. A digest of the protocol:
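Synthetic nanobody libraries on Saccharomyces cerevisiae BJ5465 were galactose-induced for 36–48 hours, stained 1 hour at 4 °C with 10% biotinylated, detergent-solubilized Sf9 membrane reagent and enriched on streptavidin microbeads. FACS then separated cells into low and high (top ~1%) gates by anti-HA (expression) and streptavidin (reagent binding) fluorescence. Genes were colony-PCR amplified, MiSeq 2 × 250 sequenced and CDR-length filtered. A clone's polyreactivity label is that of its gate of origin.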
In the case of “QVQLVESGGGLVQAGGSLRLSCAASGRIFLANAMGWSRQAPGKERELVAAISLSGGRTYYADSVKGRFTISRDNAKNTVYLQMNSLKPEDTAVYYCAAEFYPIRYYGGYDYWGQGTLVTVSS”, the “polyreactivity (PSR sort gate)” value was “low polyreactivity”. In the case of “QVQLVESGGGLVQAGGSLRLSCAASGRIFLFYAMGGYRQAPGKERELVAAISSTDDTYYADSVKGRFTISRDNAKNTVYLQMNSLKPEDTAVYYCAAYSIISQSEMYYWGQGTQVTVSS” it was “low polyreactivity”; in that of “QVQLVESGGGLVQAGGSLRLSCAASGRIFLGNAMGWYRQAPGKERELVAAIDASGGSTYYADSVKGRFTISRDNAKNTVYLQMNSLKPVDTAVYYCNAEPRYYSGGHGYDYWGQGTQVTVSS”, “low polyreactivity”; in that of “QVQLVESGGGLVQAGGSLRLSCAASGRIFLGNVMGWYRQAPGKERELVAAISKSGGTTYYADSVKGRFTISRDNAKNTVYLQMNSLKPEDTAVYYCAAYGSWRTYHYYYWGQGTQVTVSS”, “high polyreactivity”. Next, “QVQLVESGGGLVQAGGSLRLSCAASGRIFLGNVMGWYRQAPGKERELVAAISSGGSTNYADSVKGRFTISRDNAKNTVYLQMNSLIPEDTAVYYCAAYFVRDWKLYYYWGQGTQVTVSS”: “low polyreactivity”; “QVQLVESGGGLVQAGGSLRLSCAASGRIFLGYAKGWYRQAPGKERELVAAINRSGSSTYYADSVKGRFTISRDIAKNTVYLQMNSLKPEHSAVYYCNARSGNRYGPRYDYWVQGTQVTVSS”: “high polyreactivity”. Next, “QVQLVESGGGLVQAGGSLRLSCAASGRIFLGYAMGWYRQAPGKERELVAAISRSGGRTYYADSVKGRFTISRDNAKNTVYLQMNRLKPEDTAVYYCAARALYPLGYDYWGQGTQVTVSS”: “high polyreactivity”. For “QVQLVESGGGLVQAGGSLRLSCAASGRIFLINAMGWSRQAPGKERELDATISRSGASTDYADSVKGRFTISRDNAKNTVYLQMNSLKPEDTAVYYCNAKVYKRRVVPYDYWGQGTQVTVSS”, the “polyreactivity (PSR sort gate)” value is given as “high polyreactivity”.

In the case of “QVQLVESGGGLVQAGGSLRLSCAASGRIFLKNAMGWYRQAPGKERELVAVISRGGSTYYADSVKGRFTISRDNAKNTVYLQMNSLKPEDTAVYYCAAPYNVIFGGLDYWGQGTQVTVSS”, the “polyreactivity (PSR sort gate)” value is “high polyreactivity”. In the case of “QVQLVESGGGLVQAGGSLRLSCAASGRIFLLNAMGWSRQAPGKERELVAAIDIIGGSTYYADSVKGRFTISRDNAKNTVYLQMNSLKPEDTAVFYCAAEADFWRFVEYDYWGQGTQVTVSS” it was “low polyreactivity”; in that of “QVQLVESGGGLVQAGGSLRLSCAASGRIFLLNAMGWYRQAPGKERELVARISSGRTYYADSVKGRFTISRDNAKNTVYLQMNSLKPEDTAVYYCNATVSSSKYRYFYVNPYDYWGQGTQVTVSS”, “low polyreactivity”. Next, “QVQLVESGGGLVQAGGSLRLSCAASGRIFLPNAMGWYRQAPGKEREFVASISWSGGSTYYADSVKGRFTISRDNAKNTVYLQMNSLNPEDTAVYYCAAQSPAYYSKSYWGQGTQVTVSS”: “low polyreactivity”; “QVQLVESGGGLVQAGGSLRLSCAASGRIFLPYAMGWYRHAPGKERELVAAISRTGDRTYYADSVKGRFTISRDNAKNTVYLHMNSLKPEDTAVYYCNTSLPPTVIRYHLRYPRYDHWGQGTQVTVSS”: “low polyreactivity”. In the case of “QVQLVESGGGLVQAGGSLRLSCAASGRIFLRNAMGWYRQAPGKERELVATITSRGGSTYYADAVKGRFTISRDNAKNTVYLQMNSLKPVDTEVYDCAADPRRYRGFGYVYGGFYYWGQGTQVTVSS” it was “low polyreactivity”. On to “QVQLVESGGGLVQAGGSLRLSCAASGRIFLRNDMGWYRQAPGKERELVAGISSDGSTYYADSVKGRFTISRDNAKNTVYLQMNSLKPEDTAVDYCARYGTDHRLGYGYWGQGTQVTVSS”, for which the “polyreactivity (PSR sort gate)” value is given as “low polyreactivity”. “QVQLVESGGGLVQAGGSLRLSCAASGRIFLSNALGWYSQAPGKERELVAALSWTGGSTYYADSVTGRFTISRDNAKNTVYLQMNSLKPEDTAVYYCAASTVGQTYSYYVDTYDYWGQGTQVTVSS”: the “polyreactivity (PSR sort gate)” value is “low polyreactivity”.
